Like-named read-outs stand apart in the source and are kept apart here.
Tests used:
Experiment in all cases: SPR
[1] = molecular target: 16E6L/V (C-terminal peptide of HPV16 early protein E6 with L158V) (human papilloma virus 16)
[2] = molecular target: 16E6L/V (C-terminal peptide of HPV16 early protein E6 with L158V) (human papilloma virus 16); remark: listed apart in the source
[3] = molecular target: 16E6L/V (C-terminal peptide of HPV16 early protein E6 with L158V) (human papilloma virus 16); remark: listed apart in the source
[4] = molecular target: 16E6L/V (C-terminal peptide of HPV16 early protein E6 with L158V) (human papilloma virus 16); remark: listed apart in the source

Sequence of SCRIB-3/4 (MBP fusion of the third of the four PDZ domains of SCRIB) (Q14160 997-1093): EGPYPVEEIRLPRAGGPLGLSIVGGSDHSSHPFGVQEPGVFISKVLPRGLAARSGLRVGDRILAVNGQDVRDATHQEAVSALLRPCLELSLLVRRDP
Sequence of MAGI1-3/6 (MBP fusion of the third of the six PDZ domains of MAGI1) (Q6RHR9 613-752): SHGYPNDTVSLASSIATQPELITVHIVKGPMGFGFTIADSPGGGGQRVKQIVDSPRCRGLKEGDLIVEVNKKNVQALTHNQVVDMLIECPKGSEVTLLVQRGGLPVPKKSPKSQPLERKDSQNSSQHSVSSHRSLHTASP
Sequence of MAGI1-2/6 (MBP fusion of the second of the six PDZ domains of MAGI1) (Q6RHR9 448-572): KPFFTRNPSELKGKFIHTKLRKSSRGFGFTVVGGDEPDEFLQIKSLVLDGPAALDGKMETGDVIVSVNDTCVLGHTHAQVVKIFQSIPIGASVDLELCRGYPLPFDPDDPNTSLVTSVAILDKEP
Sequence of SCRIB-34/4 (MBP fusion of the tandem of the third and fourth PDZ domains of SCRIB) (Q14160 997-1193): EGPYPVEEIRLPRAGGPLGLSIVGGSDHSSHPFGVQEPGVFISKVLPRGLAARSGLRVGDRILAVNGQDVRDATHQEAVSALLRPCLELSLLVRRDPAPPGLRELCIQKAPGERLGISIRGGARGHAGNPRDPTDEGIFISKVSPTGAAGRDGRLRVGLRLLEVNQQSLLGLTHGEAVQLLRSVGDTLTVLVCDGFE

Substance | Kd [1] [µM] | Kd [2] [µM] | Kd [3] [µM] | Kd [4] [µM]
MAGI1-2/6 (MBP fusion of the second of the six PDZ domains of MAGI1) (from UniProt Q6RHR9-1 448-572) (domain or fragment) | 2 | 18 | 1 | 
MAGI1-3/6 (MBP fusion of the third of the six PDZ domains of MAGI1) (from UniProt Q6RHR9-1 613-752) (domain or fragment) | 69 | 76 | 202 | 
SCRIB-3/4 (MBP fusion of the third of the four PDZ domains of SCRIB) (from UniProt Q14160-1 997-1093) (domain or fragment) | 18 | 41 | 32 | 
SCRIB-34/4 (MBP fusion of the tandem of the third and fourth PDZ domains of SCRIB) (from UniProt Q14160-1 997-1193) (domain or fragment) | 3 |  |  | 4
